# B1: K202.A (bispecific antibody)
# heavy: EVQLLESGGGLVQPGGSLRLSCAASGFTFSDYAMSWVRQAPGKGLEWVSWIYSGSGNKYYADSVKGRFTISRDNSKNTLYLQMNSLRAEDTAVYYCARFPIARTSNSQSSYDGMDVWGQGTLVTVSSASTKGPSVFPLAPCSRSTSESTAALGCLVKDYFPEPVTVSWNSGALTSGVHTFPAVLQSSGLYSLSSVVTVPSSSLGTKTYTCNVDHKPSNTKVDKRVESKYGPPCPPCPPCPAPEFLGGPSVFLFPPKPKDTLMISRTPEVTCVVVDVSQEDPEVQFNWYVDGVEVHNAKTKPREEQFNSTYRVVSVLTVLHQDWLNGKEYKCKVSNKGLPSSIEKGQPREPQVYTLPPSQEEMTKNQVSLTCLVKGFYPSDIAVEWESNGQPENNYKTTPPVLDSDGSFFLYSRLTVDKSRWQEGNVFSCSVMHEALHNHYTQKSLSLSLGK
# light: QSVLTQPPSASGTPGQRVTISCSGSSSNIGSNAVSWYQQLPGTAPKLLIYADNKRPSGVPDRFSGSKSGTSASLAISGLRSEDEADYYCGAWDSSLNAYVFGGGTKLTVLVAAPSVFIFPPSDEQLKSGTASVVCLLNNFYPREAKVQWKVDNALQSGNSQESVTEQDSKDSTYSLSSTLTLSKADYEKHKVYACEVTHQGLSSPVTKSFNRGEC
# scFv: EVQLLESGGGLVQPGGSLRLSCAASGFTFSSYDMSWVRQAPGKGLEWVSGISYSGGSTYYADSVKGRFTISRDNSKNTLYLQMNSLRAEDTAVYYCARDVNFVPLVTFDYWGQGTLVTVSSGGGGSGGGGSGGGGSQSVLTQPPSASGTPGQRVTLSCTGSSSNIGSNSVTWYQQLPGTAPKLLIYDDNQRPSGVPDRFSGSKSGTSASLAISGLRSEDEADYYCGTWDYSLSAYVFGGGTKLTVL
# B2: K202.B (bispecific antibody)
# heavy: EVQLLESGGGLVQPGGSLRLSCAASGFTFSDYAMSWVRQAPGKGLEWVSWIYSGSGNKYYADSVKGRFTISRDNSKNTLYLQMNSLRAEDTAVYYCARFPIARTSNSQSSYDGMDVWGQGTLVTVSSASTKGPSVFPLAPCSRSTSESTAALGCLVKDYFPEPVTVSWNSGALTSGVHTFPAVLQSSGLYSLSSVVTVPSSSLGTKTYTCNVDHKPSNTKVDKRVESKYGPPCPPCPPCPAPEFLGGPSVFLFPPKPKDTLMISRTPEVTCVVVDVSQEDPEVQFNWYVDGVEVHNAKTKPREEQFNSTYRVVSVLTVLHQDWLNGKEYKCKVSNKGLPSSIEKGQPREPQVYTLPPSQEEMTKNQVSLTCLVKGFYPSDIAVEWESNGQPENNYKTTPPVLDSDGSFFLYSRLTVDKSRWQEGNVFSCSVMHEALHNHYTQKSLSLSLGK
# light: QSVLTQPPSASGTPGQRVTISCSGSSSNIGSNAVSWYQQLPGTAPKLLIYADNKRPSGVPDRFSGSKSGTSASLAISGLRSEDEADYYCGAWDSSLNAYVFGGGTKLTVLVAAPSVFIFPPSDEQLKSGTASVVCLLNNFYPREAKVQWKVDNALQSGNSQESVTEQDSKDSTYSLSSTLTLSKADYEKHKVYACEVTHQGLSSPVTKSFNRGEC
# scFv: EVQLLESGGGLVQPGGSLRLSCAASGFTFSSYDMSWVRQAPGKGLEWVSGISYSGGSTYYADSVKGRFTISRDNSKNTLYLQMNSLRAEDTAVYYCARDVNFVPLVTFDYWGQGTLVTVSSGGGGSGGGGSGGGGSQSVLTQPPSASGTPGQRVTLSCTGSSSNIGSNSVTWYQQLPGTAPKLLIYDDNQRPSGVPDRFSGSKSGTSASLAISGLRSEDEADYYCGTWDYSLSAYVFGGGTKLTVL
# B3: RD3 (antibody, V domains shown)
# VH: EVQLLESGGGLVQPGGSLRLSCAASGFTFSDYAMSWVRQAPGKGLEWVSWIYSGSGNKYYADSVKGRFTISRDNSKNTLYLQMNSLRAEDTAVYYCARFPIARTSNSQSSYDGMDVWGQGTLVTVSS
# VL: QSVLTQPPSASGTPGQRVTISCSGSSSNIGSNAVSWYQQLPGTAPKLLIYADNKRPSGVPDRFSGSKSGTSASLAISGLRSEDEADYYCGAWDSSLNAYVFGGGTKLTVL
# Molecular target: SARS-CoV-2 S protein of the B.1 (D614G) variant, on pseudotyped lentiviral particles (SARS-CoV-2)
# Experiment: cell-based or functional assay
Binder,"IC50 (nM), pseudotyped virus infection","IC50 (nM), pseudovirus neutralization, luciferase in 293T/hACE2 cells"
B1,0.39 nM,
B2,0.12 nM,
B3,2.22 nM,1.4 nM
